This is an account of results in article PMC11457862.

Experiment [1] has as its target biotinylated human IL-2Rα ectodomain (amino acids 1-217) (human). The experiment can be described thus: BLI; same set-up as a1; equilibrium titration of the response at the end of the association phase, first-order fit (Figures 2 and 3, Supplemental Table 1).
Experiment [2] deals with biotinylated human IL-2 (amino acids 1-133, C-terminal biotin acceptor peptide) (human) (UniProt P60568). The experiment is described as above.
In experiment [3] the target is T1, biotinylated human IL-2Rβ ectodomain (amino acids 1-214) (human) (UniProt P14784).
T1 sequence (chain, biotin on the biotin acceptor peptide (BirA ligase)): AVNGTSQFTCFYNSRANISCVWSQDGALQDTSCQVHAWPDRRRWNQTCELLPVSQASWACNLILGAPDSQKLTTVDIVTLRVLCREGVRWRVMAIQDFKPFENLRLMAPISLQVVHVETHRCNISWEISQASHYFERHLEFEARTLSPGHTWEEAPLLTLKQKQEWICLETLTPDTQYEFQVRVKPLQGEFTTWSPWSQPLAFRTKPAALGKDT
The experiment is described as above.

Experiment [4] deals with biotinylated human IL-2 (amino acids 1-133, C-terminal biotin acceptor peptide) (human) (UniProt P60568). The experiment can be described thus: BLI; biotinylated human IL-2, IL-2Rα or IL-2Rβ on streptavidin tips (Octet Red96); soluble analyte in PBSA (PBS pH 7.2, 0.1% BSA), 300 s association; kinetic fit, 1:1 binding model; IL-2/602 Cx 2:1 by the legend (Supplemental Figure 2, Supplemental Table 1).

The target in experiment [5] is T1, biotinylated human IL-2Rβ ectodomain (amino acids 1-214) (human). The description is as above.
Experiment [6] concerns the target biotinylated human IL-2 (amino acids 1-133, C-terminal biotin acceptor peptide) (human) (UniProt P60568). The experiment can be described thus: BLI; same set-up as a3; equilibrium titration, first-order fit (Supplemental Figure 4A-C, Supplemental Table 4).
Experiment [7] deals with T1, biotinylated human IL-2Rβ ectodomain (amino acids 1-214) (human). The description is as above.
Experiment [8] deals with biotinylated human IL-2 (amino acids 1-133, C-terminal biotin acceptor peptide) (human) (UniProt P60568). The experiment can be described thus: BLI; same set-up as a5; equilibrium titration, first-order fit (Supplemental Figure 6C,D, Supplemental Table 5).
In experiment [9] the target is T1, biotinylated human IL-2Rβ ectodomain (amino acids 1-214) (human). As to the kind of experiment: BLI; biotinylated human IL-2 or IL-2Rβ on streptavidin tips; engineered 602 IC variants and controls in PBSA; kinetic fit, 1:1 binding model (Supplemental Figure 5, Supplemental Table 4).
Experiment [10] concerns the target biotinylated mouse IL-2Rα (mouse) (UniProt P01590). As to the kind of experiment: BLI; biotinylated mouse IL-2Rα or IL-2Rβ on streptavidin tips; ICs or 602 Ab in PBSA; kinetic fit, 1:1 binding model (Supplemental Figure 6E,F, Supplemental Table 1).
For experiment [11], the target named is biotinylated mouse IL-2Rβ (mouse) (UniProt P16297). The description is as above.
Sequence of biotinylated mouse IL-2Rβ (mouse) (P16297 27-539): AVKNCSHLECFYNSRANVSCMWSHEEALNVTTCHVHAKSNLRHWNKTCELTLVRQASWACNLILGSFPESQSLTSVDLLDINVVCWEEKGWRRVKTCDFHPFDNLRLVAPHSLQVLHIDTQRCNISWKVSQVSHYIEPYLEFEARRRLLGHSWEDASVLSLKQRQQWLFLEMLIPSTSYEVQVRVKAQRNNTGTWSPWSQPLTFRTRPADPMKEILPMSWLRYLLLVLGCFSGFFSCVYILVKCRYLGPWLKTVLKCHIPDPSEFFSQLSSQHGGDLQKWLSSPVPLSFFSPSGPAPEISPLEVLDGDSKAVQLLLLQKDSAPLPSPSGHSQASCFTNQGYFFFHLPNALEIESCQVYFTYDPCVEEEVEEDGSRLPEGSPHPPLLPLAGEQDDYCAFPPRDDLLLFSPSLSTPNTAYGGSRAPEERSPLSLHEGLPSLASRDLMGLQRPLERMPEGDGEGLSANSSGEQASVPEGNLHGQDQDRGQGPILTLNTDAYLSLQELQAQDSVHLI
Experiment [12] has the same target. As to the kind of experiment: BLI; same set-up as a7; equilibrium titration, first-order fit (Supplemental Figure 6G,H, Supplemental Table 1).
For experiment [13], the target named is biotinylated human IL-2 (amino acids 1-133, C-terminal biotin acceptor peptide) (human) (UniProt P60568). The experiment can be described thus: BLI; biotinylated human IL-2 or IL-2Rβ on streptavidin tips; engineered 602 IC variants and controls in PBSA; kinetic fit, 1:1 binding model (Supplemental Figure 5, Supplemental Table 4).
For experiment [14], the target named is biotinylated human IL-2Rα ectodomain (amino acids 1-217) (human). As to the kind of experiment: BLI; biotinylated human IL-2, IL-2Rα or IL-2Rβ on streptavidin tips (Octet Red96); soluble analyte in PBSA (PBS pH 7.2, 0.1% BSA), 300 s association; kinetic fit, 1:1 binding model; IL-2/602 Cx 2:1 by the legend (Supplemental Figure 2, Supplemental Table 1).

Sequence of IL-2/602 complex (human IL-2 mixed with 602 antibody) (VH): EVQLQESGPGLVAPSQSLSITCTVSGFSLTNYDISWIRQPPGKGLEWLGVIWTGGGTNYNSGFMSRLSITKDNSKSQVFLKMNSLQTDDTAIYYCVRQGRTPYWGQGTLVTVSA
Sequence of IL-2/602 complex (human IL-2 mixed with 602 antibody) (VL): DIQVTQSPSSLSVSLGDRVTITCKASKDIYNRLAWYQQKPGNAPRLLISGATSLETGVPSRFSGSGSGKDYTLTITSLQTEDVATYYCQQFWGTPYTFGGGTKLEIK
Sequence of biotinylated mouse IL-2Rα (mouse) (P01590 22-268): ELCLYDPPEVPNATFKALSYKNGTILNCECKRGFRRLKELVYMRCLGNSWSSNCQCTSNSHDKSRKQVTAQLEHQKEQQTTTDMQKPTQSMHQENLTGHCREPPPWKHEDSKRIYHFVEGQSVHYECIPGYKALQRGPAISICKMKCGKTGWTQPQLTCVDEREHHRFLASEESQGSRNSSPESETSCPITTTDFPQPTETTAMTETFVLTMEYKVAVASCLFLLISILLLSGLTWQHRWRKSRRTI

Take “602 immunocytokine with 15-amino-acid linker (IL-2-(G4S)3-602 light chain + 602 heavy chain) (from UniProt P60568 21-153)”: the equilibrium dissociation constant (Kd) in [1] is over 2000 nM; in experiment [2], 905 nM; in [3], 8.4 nM; in experiment [4] it was 88.3 nM.

“602 immunocytokine with 25-amino-acid linker (IL-2-(G4S)5-602 light chain + 602 heavy chain) (from UniProt P60568 21-153)”: the equilibrium dissociation constant (Kd) in experiment [1] is over 2000 nM; in experiment [2], 941 nM; in [4] it was 76.9 nM; in [5] it was 3.66 nM.

Consider “602 immunocytokine with 35-amino-acid linker (IL-2-(G4S)7-602 light chain + 602 heavy chain) (from UniProt P60568 21-153)”, for which the Kd in [1] was over 2000 nM; in experiment [2], over 2000 nM; in experiment [3], 5 nM; in experiment [6], over 2000 nM; in [7], 5.4 nM; in [8], over 2000 nM. Also, the Kd in experiment [9] was 0.26 nM; in experiment [4], 143 nM; in experiment [5] it was 4.22 nM.

Regarding “Control immunocytokine (IL-2-(G4S)7-light chain of anti-fluorescein antibody 4-4-20 + 4-4-20 heavy chain) (from UniProt P60568 21-153)”, the dissociation constant Kd was 4.74 nM in [10]; over 10000 nM in experiment [11]; over 10000 nM in [12]; 5.2 nM in [1]; over 2000 nM in experiment [2]; over 2000 nM in [8]. In [5], this substance came in with a Kd of 0.18 nM.

As for “IL-2/602 complex (human IL-2 mixed with 602 antibody) (from UniProt P60568 21-153)”, the Kd in [2] was determined as 103 nM; in [3], 5.2 nM; in experiment [6], 74 nM; in experiment [7] it was 6 nM; in [8], 168 nM; in experiment [13], 13.3 nM. Besides, the dissociation constant Kd in experiment [9] worked out at 0.3 nM; in experiment [14], 0.55 nM; in experiment [4], 10.6 nM; in experiment [5], 3.89 nM.

Turning to “human IL-2 (amino acids 1-133), soluble (from UniProt P60568 21-153) (ligand)”, the Kd was found to be 7.3 nM in experiment [1] and 3.2 nM in experiment [14].
